The target in assay [1] is Human ROR1-CHO cells (human) (UniProt Q01973). As to the kind of experiment: FACS; BCC supernatant. (In flow cytometry, cells or beads pass a laser one at a time.)
For a further assay, the target named is Human ROR2 (human) (UniProt Q01974). As to the kind of experiment: ELISA, direct coat; BCC supernatant. For orientation: An ELISA detects its analyte on a solid surface through an enzyme-linked reagent.
Assay [2] concerns the target T1, human ROR1 'Frizzled-Kringle domain' (human, UniProt Q01973).
T1 construct: used plain or biotinylated
As to the kind of experiment: ELISA, direct coat; BCC supernatant.

Assay [3] concerns the target T2, human ROR1 'Ig-Frizzled domain' (human, UniProt Q01973).
T2 construct: used plain or biotinylated
As to the kind of experiment: ELISA, direct coat; BCC supernatant.

Assay [4] has as its target T3, recombinant human ROR1 extracellular domain protein (human, UniProt Q01973 30-406).
T3 construct: extracellular domain; Analyte in solution in the Octet assay; also called human ROR1 ECD
As to the kind of experiment: ELISA, direct coat; BCC supernatant.

The target in assay [5] is T4, mouse ROR1 (serum titer ELISA antigen) (mouse, UniProt Q9Z139 30-403, limits assumed). As to the kind of experiment: ELISA, direct coat; BCC supernatant.
In assay [6] the target is T1, human ROR1 'Frizzled-Kringle domain'. As to the kind of experiment: ELISA, biotinylated antigen on avidin plate; BCC supernatant.
Assay [7] has as its target T2, human ROR1 'Ig-Frizzled domain'. The assay is described as above.
Assay [8] deals with T5, Human ROR2 (human, UniProt Q01974). As to the kind of experiment: Octet. (In general: In BLI a coated tip is dipped into the sample, and binding shifts an interference pattern.)
In assay [9] the target is T1, human ROR1 'Frizzled-Kringle domain'. As to the kind of experiment: Octet.
The target in assay [10] is T3, recombinant human ROR1 extracellular …. As to the kind of experiment: Octet, bi-valent binding to human ROR1.
Assay [11] addresses T4, mouse ROR1 (serum titer ELISA antigen). As to the kind of experiment: Octet.
Another assay deals with T6, Mouse ROR1-CHO (mouse, UniProt Q9Z139).
T6 construct: expressed on the surface of CHO cells; also called mouse ROR1 on CHO cells
As to the kind of experiment: FACS, mouse ROR1-CHO.

The target of assay [12] is T3, recombinant human ROR1 extracellular …. As to the kind of experiment: Octet, mono-valent binding to human ROR1. The text has this: The heavy and light chain expression plasmids generated from each well were transiently co-transfected to produce rabbit/human chimeric antibodies. Recombinant antibody supernatants were confirmed to contain anti-ROR1 antibodies using bio-layer interferometry analysis on a ForteBio Octet Red 96 instrument. Anti-human Fc biosensors (Pall ForteBio) were used to capture antibodies in the supernatants. Association to ROR1 was observed by real-time interferometry by placing the biosensors in wells containing recombinant human ROR1 extracellular domain protein. Dissociation was measured after transfer of the biosensors into wells containing 10× kinetics buffer (Pall ForteBio). The software provided by the manufacturer was used to analyze the interferometry data.

The target in assay [13] is T2, human ROR1 'Ig-Frizzled domain'. As to the kind of experiment: Octet.
Assay [14] deals with T5, Human ROR2. As to the kind of experiment: ELISA, direct coat; BCC supernatant.
In assay [15] the target is T7, human ROR1 'Kringle domain' (human, UniProt Q01973, biotinylated).
T7 construct: also called biotinylated human ROR1 Kringle domain
As to the kind of experiment: ELISA, biotinylated antigen on avidin plate; BCC supernatant.

Assay [16] deals with recombinant human ROR1 extracellular domain protein (human) (UniProt Q01973). As to the kind of experiment: ELISA, direct coat; BCC supernatant.
Sequence of recombinant human ROR1 extracellular domain protein (human) (Q01973 30-406): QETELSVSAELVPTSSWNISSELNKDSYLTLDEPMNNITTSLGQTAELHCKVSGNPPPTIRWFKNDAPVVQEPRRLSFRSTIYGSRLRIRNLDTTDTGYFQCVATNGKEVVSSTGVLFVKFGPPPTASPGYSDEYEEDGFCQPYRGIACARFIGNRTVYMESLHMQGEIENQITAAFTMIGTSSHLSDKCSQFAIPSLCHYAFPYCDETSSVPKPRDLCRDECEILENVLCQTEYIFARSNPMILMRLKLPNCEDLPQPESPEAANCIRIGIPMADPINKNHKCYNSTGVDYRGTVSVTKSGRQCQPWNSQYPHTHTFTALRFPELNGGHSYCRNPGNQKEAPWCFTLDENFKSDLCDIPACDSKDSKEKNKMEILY

T5 sequence (Q01974 34-403 limits assumed): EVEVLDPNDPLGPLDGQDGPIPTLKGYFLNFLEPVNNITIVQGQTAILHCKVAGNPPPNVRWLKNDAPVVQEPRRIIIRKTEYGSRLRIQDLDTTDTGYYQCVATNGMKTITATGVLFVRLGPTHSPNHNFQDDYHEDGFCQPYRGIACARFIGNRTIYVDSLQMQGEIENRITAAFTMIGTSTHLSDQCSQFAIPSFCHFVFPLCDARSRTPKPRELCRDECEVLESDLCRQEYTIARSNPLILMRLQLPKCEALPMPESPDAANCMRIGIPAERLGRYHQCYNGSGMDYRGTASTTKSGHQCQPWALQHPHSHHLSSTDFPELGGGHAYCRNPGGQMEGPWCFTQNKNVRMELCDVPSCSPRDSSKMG
T4 sequence (Q9Z139 30-403 limits assumed): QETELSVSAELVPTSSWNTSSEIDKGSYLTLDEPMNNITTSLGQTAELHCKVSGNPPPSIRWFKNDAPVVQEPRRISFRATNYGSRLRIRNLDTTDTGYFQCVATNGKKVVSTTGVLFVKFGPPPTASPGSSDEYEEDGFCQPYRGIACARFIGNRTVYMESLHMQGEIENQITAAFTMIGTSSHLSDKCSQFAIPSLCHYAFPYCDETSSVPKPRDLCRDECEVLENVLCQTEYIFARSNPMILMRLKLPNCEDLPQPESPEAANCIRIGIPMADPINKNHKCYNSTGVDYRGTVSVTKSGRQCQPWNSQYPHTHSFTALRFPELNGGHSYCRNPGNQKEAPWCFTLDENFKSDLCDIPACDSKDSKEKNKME
T1 sequence (Q01973 165-406 limits assumed): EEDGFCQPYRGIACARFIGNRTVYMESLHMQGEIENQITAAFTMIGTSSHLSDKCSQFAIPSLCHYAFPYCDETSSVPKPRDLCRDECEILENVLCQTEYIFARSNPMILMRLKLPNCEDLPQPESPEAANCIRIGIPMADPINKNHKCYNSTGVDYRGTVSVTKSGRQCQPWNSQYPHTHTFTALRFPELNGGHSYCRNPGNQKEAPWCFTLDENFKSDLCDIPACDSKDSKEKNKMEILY
T3 sequence (Q01973 30-406): as the sequence (Q01973 30-406) above
T2 sequence (Q01973 30-305 limits assumed): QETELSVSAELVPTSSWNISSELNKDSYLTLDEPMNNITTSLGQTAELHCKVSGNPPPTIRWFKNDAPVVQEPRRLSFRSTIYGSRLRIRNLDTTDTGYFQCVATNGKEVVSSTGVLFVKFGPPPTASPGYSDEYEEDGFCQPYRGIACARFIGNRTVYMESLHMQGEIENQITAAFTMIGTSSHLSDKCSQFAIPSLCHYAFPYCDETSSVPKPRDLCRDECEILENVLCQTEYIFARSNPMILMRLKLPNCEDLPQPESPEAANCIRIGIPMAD
T6 sequence (Q9Z139 30-937 limits assumed): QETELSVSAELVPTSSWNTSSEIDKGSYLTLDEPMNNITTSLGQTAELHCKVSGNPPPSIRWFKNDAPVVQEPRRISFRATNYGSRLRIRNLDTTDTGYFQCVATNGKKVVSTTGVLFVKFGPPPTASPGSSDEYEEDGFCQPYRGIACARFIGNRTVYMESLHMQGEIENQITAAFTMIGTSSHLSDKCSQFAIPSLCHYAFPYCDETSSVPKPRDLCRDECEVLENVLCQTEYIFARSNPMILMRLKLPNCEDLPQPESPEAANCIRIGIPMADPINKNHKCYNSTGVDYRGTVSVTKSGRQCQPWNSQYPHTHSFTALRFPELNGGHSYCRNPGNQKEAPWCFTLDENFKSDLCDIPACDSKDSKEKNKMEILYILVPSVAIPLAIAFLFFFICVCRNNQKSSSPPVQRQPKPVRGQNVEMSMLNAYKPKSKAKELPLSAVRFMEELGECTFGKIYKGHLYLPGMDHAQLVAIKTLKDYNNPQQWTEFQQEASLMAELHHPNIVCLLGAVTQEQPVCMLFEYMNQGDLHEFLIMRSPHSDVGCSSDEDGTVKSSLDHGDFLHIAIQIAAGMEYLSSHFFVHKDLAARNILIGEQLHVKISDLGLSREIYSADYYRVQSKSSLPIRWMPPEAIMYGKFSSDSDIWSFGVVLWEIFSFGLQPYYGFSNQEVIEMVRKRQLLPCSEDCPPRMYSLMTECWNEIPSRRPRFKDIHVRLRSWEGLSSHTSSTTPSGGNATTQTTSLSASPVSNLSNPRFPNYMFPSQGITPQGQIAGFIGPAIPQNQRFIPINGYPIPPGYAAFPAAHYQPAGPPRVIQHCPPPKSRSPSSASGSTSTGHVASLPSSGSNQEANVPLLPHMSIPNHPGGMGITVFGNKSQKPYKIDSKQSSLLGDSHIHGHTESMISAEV
Sequence of Human ROR2 (human) (Q01974 34-403 limits assumed): as the sequence (Q01974 34-403 limits assumed) above
Sequence of Human ROR1-CHO cells (human) (Q01973 30-937 limits assumed): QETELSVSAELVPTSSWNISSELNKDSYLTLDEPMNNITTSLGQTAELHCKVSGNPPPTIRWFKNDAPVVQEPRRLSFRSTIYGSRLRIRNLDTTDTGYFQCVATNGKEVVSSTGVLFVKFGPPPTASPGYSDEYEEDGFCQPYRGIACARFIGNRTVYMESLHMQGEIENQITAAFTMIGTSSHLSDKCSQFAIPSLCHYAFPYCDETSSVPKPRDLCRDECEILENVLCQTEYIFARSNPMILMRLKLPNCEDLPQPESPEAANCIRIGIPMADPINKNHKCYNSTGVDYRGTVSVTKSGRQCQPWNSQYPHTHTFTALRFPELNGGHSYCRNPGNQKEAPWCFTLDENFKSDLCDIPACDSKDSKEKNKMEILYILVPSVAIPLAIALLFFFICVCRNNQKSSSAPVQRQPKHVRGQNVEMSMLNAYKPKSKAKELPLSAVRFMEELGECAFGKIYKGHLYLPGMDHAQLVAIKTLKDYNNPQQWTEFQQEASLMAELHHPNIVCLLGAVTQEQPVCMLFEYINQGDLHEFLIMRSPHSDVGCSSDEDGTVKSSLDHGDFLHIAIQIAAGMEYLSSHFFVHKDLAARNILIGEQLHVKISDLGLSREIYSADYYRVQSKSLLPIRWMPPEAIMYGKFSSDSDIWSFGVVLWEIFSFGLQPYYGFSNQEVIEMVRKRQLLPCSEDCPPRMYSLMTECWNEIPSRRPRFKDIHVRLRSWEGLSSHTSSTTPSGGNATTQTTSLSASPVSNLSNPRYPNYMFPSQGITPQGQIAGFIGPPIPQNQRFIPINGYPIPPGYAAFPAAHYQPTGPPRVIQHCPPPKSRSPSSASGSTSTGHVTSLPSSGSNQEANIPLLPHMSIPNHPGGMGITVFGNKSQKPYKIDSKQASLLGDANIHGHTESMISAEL
T7 sequence (Q01973 308-395 limits assumed): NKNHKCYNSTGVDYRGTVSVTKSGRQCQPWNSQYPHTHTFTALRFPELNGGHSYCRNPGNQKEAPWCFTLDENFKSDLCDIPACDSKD

B1: 323D10 (antibody, V domains shown)
VH: QSVEESGGRLVTPGTPLTLTCTVSGFSLSRNAMNWVRQAPGKGLEYIGYISTSGTTFYANWVKGRFTISKTSTTVDLKMTSLTTEDTATYFCARDYNYAMDIWGQGTLVTVSS
VL: AIDLTQTPASVEAAVGGTITINCQASESISSWLAWYQQKPGQRPKLLIYETSKLASGVPPRFSGSGSGTQFTLTISGVQCDDAATYYCQSYYRINNIGYDNAFGGGTEVEFK
notes: chimeric counterpart m5; also called rabbit IgG of BCC well 323D10
Turning to B1, the FACS MFI in assay [1] was found to be 20 MFI. The ELISA OD450 with Human ROR2 (human) was determined as 0.23 OD450; in [2], 0.32 OD450; in assay [3] it was 1.94 OD450; in assay [4], 2.32 OD450; in [5], 4 OD450; in assay [6], 0.17 OD450. Also, the “ELISA OD450” value in assay [7] amounted to 2.23 OD450.

B2: 323D10 chimeric rabbit/human IgG antibody (antibody, V domains shown)
VH: B1 VH
VL: AIDLTQTPASVEAAVGGTITINCQASESISSWLAWYQQKPGQRPKLLIYETSKLASGVPPRFSGSGSGTQFTLTISGVQCDDAATYYCQSYYRINNIGYDNAFGGGTEVEFKR
notes: Rabbit variable regions on human gamma-1 and human kappa constant domains
Consider B2, for which the binding result (with Human ROR2 [8]; in [9]) was “no binding” in each case. Besides, the koff (usually a measure of how fast the partners let go of each other) in assay [10] came to 0.00961 s⁻¹.

B3: 323H7 chimeric rabbit/human IgG antibody (antibody, V domains shown)
VH: QEQLKESGGGLVTPGGTLTLTCTASGFTISRYHMTWVRQAPGKGLEWIGHIYVNNDDTDYASWAKGRFTISKTSTTVDLKITSPTTEDTATYFCARLDVGGGGAYIGDIWGQGTLVTVSS
VL: QAVVTQTPSSVSAAVGGTVTISCQSSQSVYNNNDLAWYQQKPGQPPKLLIYYASTLASGVSSRFKGSGSGTQFTLAISDLECDDSATYYCAGGYDTDGLDTFAFGGGTEVEVKR
notes: as for B2
Turning to B3, the binding result (with Human ROR2 [8]; in assay [9]; in assay [11]; with Mouse ROR1-CHO) was “no binding” in each case. Also, the results for the koff in [10] and in assay [12] were 0.0062 s⁻¹ and 2.08e-08 s⁻¹, respectively.

B4: 330F11 chimeric rabbit/human IgG antibody (antibody, V domains shown)
VH: QSVEESGGRLVTPGTPLTLTCTVSGFSLNNYWMSWVRQAPGEGLEWIGTISSGAYTWFATWATGRFTISKTSTTVDLSITSPTTEDTATYFCARYSSTTDWTYFNIWGPGTLVTVSS
VL: DVVMTQTPASVEAAVGGTVTIKCQASQSINNYLAWYQQKPGQPPKLLIYRASTLESGVPSRFKGSGSGTQFTLTISDLECADAATYYCQSYNGVGRTAFGGGTEVEFKR
notes: as for B2
For the molecule B4, the binding result (with Human ROR2 [8]; in [13]) was “no binding” throughout. Moreover, in [12], the koff is 1.26e-08 s⁻¹.

B5: 324C7 chimeric rabbit/human IgG antibody (antibody, V domains shown)
VH: QSVEESGGRLVTPGTPLTLTCTVSGFSLSGAGVSWVRQAPGKGLEWIGYIDSGATTYYASWAKGRFTISKASTTVDLKIASPTTEDTATYFCARGYYGMDPWGQGTLVTVSS
VL: DIVMTQTPASVEVAVGGTVTIKCQASQNIGSDLAWYQQKPGQPPKLLIYTTSNLASGVPSRFKGSGSGTGFTLTISDLECADAASYCCQGGYFSGRNIYGNAFGGGTEVVVKR
notes: as for B2
As to B5, the binding result (in the assay with Human ROR2 [8]; in assay [9]; in assay [11]; with Mouse ROR1-CHO) was “no binding” in each case. The koff in assay [12] amounted to 1.35e-08 s⁻¹.

B6: 226E12 (antibody, V domains shown)
VH: QSLEESGGRLVTPGTPLTLTCTASEFSLSNYYMSWVRQAPGEGLEWIGAINADSDNTWYPSWVKGRFTISKTSSTTVDLKITSPTIEDTATYFCARSVSNNFAEYNIWGPGTLVTVSS
VL: AYDMTQTPSSVSAAVGGTVTIKCQASQRIYSYLAWYQQKPGQPPKLLIYRASTLASGVPSRFKGSGSGTEYTLTISDLECADAATYYCQQGASMVDVENMFGGGTEVVVK
notes: chimeric counterpart m2; also called rabbit IgG of BCC well 226E12
Consider B6, for which the “ELISA OD450” value with Human ROR2 [14] stood at 0.09 OD450; in [15], 0.41 OD450.

B7: 324E2 (antibody, V domains shown)
VH: QSVEESGGRLVTPGTPLTLTCTVSGFSLSNNAITWVRQAPGKGLEYIGIISSSGTTYYASWAKGRFTISKTSSTTVDLKMTSLTTEDTATYFCAGAFSVWGPGTLVTVSS
VL: AQVLTQTPSSVSAAVGGTVTINCQSSQSVNNNDLAWFQQKPGQPPKRLIYWASKLASGVPSRFKGSGSGTQFILTISDLECDDAATYYCAGGYSGNIYGFGGGTEVEVK
notes: chimeric counterpart m6; also called rabbit IgG of BCC well 324E2
On to B7, for which the FACS MFI in assay [1] came out at 25 MFI. Also, the ELISA OD450 in the assay with Human ROR2 (human) amounted to 0.21 OD450; in assay [16], 0.48 OD450; in [2], 0.18 OD450; in assay [3] it was 1.29 OD450; in assay [5], 2.17 OD450; in assay [6] it was 0.1 OD450. Further, the “ELISA OD450” value in assay [7] was determined as 0.62 OD450.

B8: 324E2 chimeric rabbit/human IgG antibody (antibody, V domains shown)
VH: B7 VH
VL: AQVLTQTPSSVSAAVGGTVTINCQSSQSVNNNDLAWFQQKPGQPPKRLIYWASKLASGVPSRFKGSGSGTQFILTISDLECDDAATYYCAGGYSGNIYGFGGGTEVEVKR
notes: as for B2
For B8, the binding result (with Human ROR2 [8]; in [9]) was “no binding” throughout. The koff in assay [10] is 0.00572 s⁻¹.

Values taken from US20210277109A1 (SYSTIMMUNE, published 2021).
